# The supplement of paper PMC12042874
# ± gives the uncertainty stated by the source.
# Assay: amyloid nucleation score (Sup35N fusion, yeast selection) (log enrichment); library NNK2; higher = more nucleation; inactive = no reads after selection
# In short: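 Nucleation score: DiMSum log enrichment of output over input reads, centred on the mode score of non-aggregating sequences. Only sequences with at least 100 input reads were kept. Reads came from Illumina sequencing of plasmid inserts before and after 7 days of growth at 30°C without adenine and uracil, in psi-negative yeast expressing Sup35N fused to peptides of 20 random codons after 24 hours of induction with 100 μM copper sulfate.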
row,Substance,amyloid nucleation score
1,RVLRLVSVLLFDVILSVE,4.85 ± 0.085
2,RVLSGRLTTNVDARGCELDR,1.3 ± 0.29
3,RVLVSS,0.713 ± 0.8
4,RVPGRDALSIASWLQSTGQV,1.03 ± 0.21
5,RVPIWRANIGKGSSIMPIFC,0.009 ± 0.76
6,RVRDYSYGGSQRLGGYMLG,-0.64 ± 0.61
7,RVSMFKDLKYNGSYSWNSHG,-1.22 ± 0.41
8,RVSTVFSLKTRRCEFLFQCV,0.24 ± 0.35
9,RVTHAFCSSINGTNANYPRR,2.54 ± 0.097
10,RVTSIVYLKLICFMGVSNLF,inactive
11,RVVQKKQLIV,0.3 ± 0.49
12,RVYDGAVVR,0.547 ± 0.34
13,RVYPFGRTRIFKTM,1.33 ± 0.15
14,RWDCGGGTNCSGENIWQGET,-0.083 ± 0.34
15,RWGMRYIMDWY,0.007 ± 1.1
16,RWHFDYRVKQV,-0.058 ± 0.37
17,RWIATGSGRPETHVILESSG,inactive
18,RWSFRLSTAIQGQPWSTPGD,5.95 ± 0.06
19,RYFINSMFLGWTPFVSVNLS,-0.107 ± 0.27
20,RYGAMKLDTSKS,0.11 ± 0.25
21,RYGRDGDRIIYNVCDFFFSG,6.475 ± 0.047
22,RYIGGSLFFRYNIVGKRQGV,3.81 ± 0.064
23,RYNESEVSISRETRNVVLTF,0.712 ± 0.26
24,RYNLARSLLFHHNTCVFMSV,-0.491 ± 0.53
25,RYQFSATPGVVRWKFEEYSD,-0.047 ± 0.46

row,Substance,amyloid nucleation score
1,RYRSTLQYISVMGLDNT,-0.608 ± 0.54
2,RYRWARLHGVLVHDWLLLIW,inactive
3,RYSATLYPTVPPDPLSAWAL,3.8 ± 0.057
4,RYSNKSDDYRGTSYLMYHVM,0.232 ± 0.45
5,RYTCRLFTDTYDSSVVLGAM,1.17 ± 0.37
6,SACIIVN,-0.012 ± 1.1
7,SACRMNWEVGGIGLSVPLCG,0.421 ± 0.2
8,SAFTNRYHLPSERVGHWCPV,0.224 ± 0.74
9,SALCAYIQSLFNDCRTLDKW,-0.5 ± 0.44
10,SAMQFRSFF,0.94 ± 0.34
11,SAPRNNVATLTEHLERLVLR,-0.767 ± 0.76
12,SARFIIIWNWALSPRPRRCE,7.561 ± 0.041
13,SARHSRDR,2.31 ± 0.066
14,SASLSTRVNNTPLPALTRWV,0.708 ± 0.62
15,SASQDATPHGCGIGISLNTR,2.79 ± 0.068
16,SCEVVSRKL,1.08 ± 0.22
17,SCLIGLRLVLSLTAHDTETA,3.97 ± 0.11
18,SCLVVLHIIAVISMVFSSIL,inactive
19,SCNAGVGSIS,-0.011 ± 0.46
20,SCNGCSSMRDIFIFHGLLHN,7.165 ± 0.033
21,SCNQCYFFQEVKRSVLVIKT,3.59 ± 0.066
22,SCNQDYTDSLSRAELKVDSS,-1.07 ± 0.62
23,SCQFWSTFCTSC,0.378 ± 0.74
24,SCRRADFGMAVVHSLLVCGE,0.709 ± 0.66
25,SCRRWHLFLGWCIDVVESIY,1.56 ± 0.13

row,Substance,amyloid nucleation score
1,SCSIPELNNEGIKVCFMNTE,1.27 ± 0.13
2,SCVVLNSYQCTAKRY,0.284 ± 1.1
3,SCYLVYEFLLTGVSWWQSRL,0.794 ± 0.48
4,SDAVSSILSFYRVPRAVGPE,inactive
5,SDCLGKSVVVYNLLGFGR,4.791 ± 0.045
6,SDCVTFATCWM,0.096 ± 0.49
7,SDDFTYSIYFMSWFFYGSYN,inactive
8,SDHLCRYV,-0.095 ± 1.1
9,SDHMYMIFMTMFVVVSHWVI,-0.795 ± 0.76
10,SDKGYCSTFNMRQALWDYGQ,0.081 ± 1.1
11,SDLFVNICCRPNRMGV,-0.521 ± 0.48
12,SDLWSIPFFGFGDPPMGFFR,inactive
13,SDLYNSSFEVLYSSYCPDVW,inactive
14,SDNTLCLTGDSAYN,0.307 ± 0.2
15,SDPLSFGFGQMWIGVHNEFY,2.2 ± 0.16
16,SDPSNLSMMCTQQRLAGSD,-0.189 ± 0.49
17,SDRGLRACQCVCWDFDSISM,6.212 ± 0.046
18,SDSSRFVDKGSYRYKRREWE,-0.161 ± 0.65
19,SDSTSVLPGRTYWVHFSAQG,0.086 ± 0.61
20,SDTKCLHY,inactive
21,SDVSREVKV,-0.038 ± 0.37
22,SDVYLTICHFFGHNLKVLPR,1.38 ± 0.26
23,SEGIADVLSVSCWCYPCRPY,-1.21 ± 1.1
24,SEGRATARQLLVKDTLFV,4.06 ± 0.088
25,SELPDIRWHTGWMFLSCAWN,-0.397 ± 0.63

row,Substance,amyloid nucleation score
1,SELRKVRCNG,0.813 ± 0.46
2,SEMDPNKAMRIGW,0.174 ± 0.21
3,SEVHSWANGKVLTLYSRMWL,0.885 ± 0.28
4,SFCVLIRYNRFGAIS,1.24 ± 0.22
5,SFCWRYMCRFVMDSFITVPR,-0.423 ± 0.34
6,SFDIPT,-0.444 ± 0.63
7,SFDVLL,-0.568 ± 0.64
8,SFGDTSKRWLFAVGGCKCRL,0.371 ± 0.51
9,SFGRAENNSSARDMYV,-0.535 ± 0.28
10,SFIGLETCQFSFHLIF,4.15 ± 0.092
11,SFIWHLPFVC,1.24 ± 0.4
12,SFKLYLYVGAVFFRLLSLVS,-1.08 ± 0.76
13,SFLIFRDVSFAGEGL,-1.21 ± 1.1
14,SFLYLPDGTDMI,0.171 ± 0.29
15,SFNNVKLDGRSF,-0.59 ± 0.64
16,SFQCSWIG,3.04 ± 0.088
17,SFQPMRQFNFMINLWTVGAA,7.179 ± 0.056
18,SFRYLCIRNGTSYGMYTSPV,0.478 ± 0.8
19,SFSCNNSLDYKGNFS,1.48 ± 0.18
20,SFSDVLNSGVRCF,0.234 ± 0.35
21,SFTCALRLGVRGHWLIVTSF,0.276 ± 1
22,SFVTTKSSFL,-0.205 ± 0.74
23,SFYDARYFQCDVFAVVRIRR,0.853 ± 0.47
24,SFYIRGYISFLGHRTW,2.57 ± 0.17
25,SGCPNDWQYFSS,-1.08 ± 0.54

row,Substance,amyloid nucleation score
1,SGDLMYSGRTSPMPAAQKFV,-0.393 ± 1.1
2,SGGVR,0.94 ± 0.32
3,SGHTFVFFYDSK,5.95 ± 0.061
4,SGIGVNSGAGRNMDLCDLKR,inactive
5,SGNAGLFNRARGSVVTAVLV,0.463 ± 0.64
6,SGRIYSGDETMFRWECRYWC,3.25 ± 0.051
7,SGVIEIMFEKSHRLHCCLFC,1.08 ± 0.41
8,SGWELRQITFGMTDCIGG,-0.328 ± 0.42
9,SGYMAHVLVFLSEGISVPC,inactive
10,SHCGHRSATGVLSPLQTKGH,-0.159 ± 0.54
11,SHEFSRMLEEFWDHNNVRSH,-1.1 ± 0.48
12,SHFADSKVHVWSMSQLATCC,0.22 ± 0.29
13,SHGPLR,5.556 ± 0.053
14,SHILSNVTYGLADVAFCACS,7.542 ± 0.067
15,SHINFYVLEFWTFRIGDVFV,inactive
16,SHIPIWRKLSVQFSVKIVLE,-0.637 ± 1.1
17,SHNDISSRC,-0.795 ± 0.49
18,SHQLICFSWRLDFYHRGLLQ,2.5 ± 0.13
19,SHRCELKWTGLVMNYKVVHC,1.71 ± 0.25
20,SHTWKQMRYYLDNWSLY,-0.288 ± 1
21,SIAGVIMVDSSSLSM,-1.01 ± 0.78
22,SIDSRYW,-0.283 ± 0.63
23,SIFRWKREKAVGLYPLHQVA,-0.094 ± 0.76
24,SIFVTYSLRTYINYK,5.95 ± 0.062
25,SIILLDYCPRRNSSTIALRH,-0.118 ± 0.43

row,Substance,amyloid nucleation score
1,SILATYPMVRSRISIMNATL,-0.174 ± 0.28
2,SILFFKGGLRRSLEHLACTA,0.635 ± 0.52
3,SILLLIKVYFWGLCNPMILA,-1.65 ± 1
4,SILLRKRQELSNFTMW,-0.67 ± 0.76
5,SIMGYGFDVRCELCDVTGGW,-0.079 ± 0.53
6,SINLLLGAGVVGGGLVLYGS,2.45 ± 0.14
7,SINYKALAS,inactive
8,SIRLYSCSMVLTSSSVNCYQ,1.86 ± 0.17
9,SIRSFSFISESNQLLEHVRK,0.119 ± 0.54
10,SISLLMICCDL,8.511 ± 0.04
11,SITFFKNAFVAIHIAR,inactive
12,SIWINFLNLWYQCFISSILG,inactive
13,SIYFKVIATTSVYRLMPTVW,-0.291 ± 0.74
14,SKCLSIPISCFTCVLLCYFF,0.936 ± 0.17
15,SKCVWIKDQNFFQVDTNESI,1.73 ± 0.34
16,SKDMCRRCCIRNLRRMSDSN,-0.443 ± 0.26
17,SKFFCVSSVRFRLCVWG,-0.14 ± 1
18,SKFNFIYCAGDQLSYRYRLG,-0.728 ± 1
19,SKFVSKSEV,-0.983 ± 1.1
20,SKGSWIDVSYDLV,-0.132 ± 0.37
21,SKHFIVTVLTAITSNVSFSM,2.38 ± 0.066
22,SKIVCDMFLGHEDLPCTRLF,0.057 ± 1.1
23,SKNVFKMGLDTSH,-1.22 ± 0.32
24,SKQTITFRSVQEDSWRRFGH,5.49 ± 0.076
25,SKVRLQSGYTKHERKNFHWL,-0.001 ± 0.34

row,Substance,amyloid nucleation score
1,SKVSKGLHST,inactive
2,SKWYVGRHFPPWPR,0.769 ± 0.24
3,SLAFNPISCAANLPFFHIQF,0.29 ± 0.77
4,SLAFYTTYNNKILGNS,3.08 ± 0.069
5,SLARSTRFLYWSGNELVFIS,3.66 ± 0.082
6,SLCPCLMIIS,-0.852 ± 0.38
7,SLEGKSWGCSTSNSLKGDKG,-0.06 ± 1.1
8,SLFDFAVFNMNYESNACISR,0.451 ± 0.27
9,SLFRVKGAVLEVLVPRMLLY,0.51 ± 0.41
10,SLFVITYRPAYSSDFILNGG,0.763 ± 0.43
11,SLGIQRARNAMSNTPFALGS,0.596 ± 0.36
12,SLHRFYYSHLYALRMRGNSR,6.16 ± 0.091
13,SLKVHSWFGNIYSDFLLTSV,-0.55 ± 0.79
14,SLNYIFLNLCRYLSCGIYIH,inactive
15,SLPIVEDITGYPLRSHWG,0.172 ± 0.27
16,SLPPLMWGAMMRRRRRGSST,5.717 ± 0.056
17,SLRFGYNFKFLAMIKFPHIR,-0.644 ± 0.78
18,SLRYLHFGVDHLS,3.94 ± 0.055
19,SLSDYFGEWISA,-0.422 ± 1.1
